System: CUL4A-DDB1-DCAF10
Test: In vitro ubiquitination of Lyn-GFP variants by CUL4A-DDB1-DCAF10
Type: biochemical, human
Settings: relative to Lyn^WT-GFP, NMT1/2 siRNA 72 h, mean ± s.d., n = 3
Excerpt: Lyn^WT-GFP was ubiquitinated by the WT E3 complex in both conditions; however, unlike in vitro ubiquitination with endogenous Lyn (Fig. 5c, d), ubiquitination increased ~6-fold under NMT1/2 siRNA conditions. This is consistent with DCAF10 being limiting and overexpressed Lyn-GFP, accumulating an acetylated fraction available for DCAF10 in vitro. Then, we performed IPs for all Nt variants under NMT1/2 siRNA conditions (Fig. 6d, h–i). […] In vitro ubiquitination assays using untreated cell lysates led to similar results (Supplementary Fig. 7h, i).
Reactions contained E1, UBCH5B (E2), ubiquitin, Mg-ATP in ligation buffer and were incubated with bead-bound substrates, followed by washing and immunoblot detection of ubiquitinated species (anti-ubiquitin), with loading controls (anti-Lyn, -Fyn, -Src or -GFP) (n = 3 independent enzymatic assays). Complete reagent lists, complex preparation, substrate IP conditions, wash buffers, and gel/blot parameters are provided in the Supplementary Methods and Tables.
357 (v/v) glycerol, 2 mM TCEP, supplemented with Protease Inhibitor Cocktail), and lysed
358 by sonication. Lysates were cleared by centrifugation at 28,000 rpm for 45 min at 4 °C […]
382 EDTA, and loaded on a gradient gel (4–15%). Ubiquitination of substrates was assessed
383 by WB using an anti-ubiquitin antibody. Equal substrate loading was evaluated by anti- […]

Row | Molecule | Reduction of ubiquitination by the WT complex
1 | Lyn^G2A-GFP: Nt-mutant (G2A) Lyn-GFP (protein, UniProt P07948 2-512, looked up, variant G2A, GFP fusion) Tyrosine-protein kinase Lyn: ACIKSKGKDSLSDDGVDLKTQPVRNTERTIYVRDPTSNKQQRPVPESQLLPGQRFQTKDPEEQGDIVVALYPYDGIHPDDLSFKKGEKMKVLEEHGEWWKAKSLLTKKEGFIPSNYVAKLNTLETEEWFFKDITRKDAERQLLAPGNSAGAFLIRESETLKGSFSLSVRDFDPVHGDVIKHYKIRSLDNGGYYISPRITFPCISDMIKHYQKQADGLCRRLEKACISPKPQKPWDKDAWEIPRESIKLVKRLGAGQFGEVWMGYYNNSTKVAVKTLKPGTMSVQAFLEEANLMKTLQHDKLVRLYAVVTREEPIYIITEYMAKGSLLDFLKSDEGGKVLLPKLIDFSAQIAEGMAYIERKNYIHRDLRAANVLVSESLMCKIADFGLARVIEDNEYTAREGAKFPIKWTAPEAINFGCFTIKSDVWSFGILLYEIVTYGKIPYPGRTNADVMTALSQGYRMPRVENCPDELYDIMKMCWKEKAEERPTFDYLQSVLDDFYTATEGQYQQQP | ~ 82 ± 13%
2 | Lyn^G2P-GFP: Nt-mutant (G2P) Lyn-GFP (protein, UniProt P07948 2-512, looked up, variant G2P, C-terminal GFP fusion) Tyrosine-protein kinase Lyn: PCIKSKGKDSLSDDGVDLKTQPVRNTERTIYVRDPTSNKQQRPVPESQLLPGQRFQTKDPEEQGDIVVALYPYDGIHPDDLSFKKGEKMKVLEEHGEWWKAKSLLTKKEGFIPSNYVAKLNTLETEEWFFKDITRKDAERQLLAPGNSAGAFLIRESETLKGSFSLSVRDFDPVHGDVIKHYKIRSLDNGGYYISPRITFPCISDMIKHYQKQADGLCRRLEKACISPKPQKPWDKDAWEIPRESIKLVKRLGAGQFGEVWMGYYNNSTKVAVKTLKPGTMSVQAFLEEANLMKTLQHDKLVRLYAVVTREEPIYIITEYMAKGSLLDFLKSDEGGKVLLPKLIDFSAQIAEGMAYIERKNYIHRDLRAANVLVSESLMCKIADFGLARVIEDNEYTAREGAKFPIKWTAPEAINFGCFTIKSDVWSFGILLYEIVTYGKIPYPGRTNADVMTALSQGYRMPRVENCPDELYDIMKMCWKEKAEERPTFDYLQSVLDDFYTATEGQYQQQP | ~ 84 ± 10%
